The text below walks through data of PMC6073757.

Test [1] addresses LrtA protein of Synechocystis sp. PCC 6803 (Synechocystis sp. PCC 6803). Kind of test: cross-linking; glutaraldehyde 1% final, 97 uM LrtA (protomer units), 50 mM Tris pH 8.0, 0.5 M NaCl, room temperature; aliquots on 12% SDS-PAGE.
The target is the same in test [2]. Kind of test: SEC; Superose 12 10/300 GL, 50 mM Tris pH 8.0, 0.7 M NaCl, 97 uM LrtA (protomer units) loaded in 100 uL, 25 °C; calibrated with blue dextran, albumin, RNase A. On the technique in general: Size exclusion chromatography separates by hydrodynamic size, large species first.

Values joined by “and” are separate entries in the source; they are usually repeats but may differ in a detail not shown here. Equal entries are not always repeated.

“LrtA protein of Synechocystis sp. PCC 6803 (natural protein)”: the stoichiometry N was 2 in test [1]; 6 and 12 in test [2].

One may read the stoichiometry N as the number of molecules, sites or subunits per partner or assembly.
